Measured values from patent publication US20240228604A1 (ALCHEMAB THERAPEUTICS, published 2024).

Target: T1, Human recombinant DCC (BLI antigen) (Human, UniProt P43146 26-1097)
T1 construct: also called Netrin receptor DCC ectodomain
Assay: BLI, antigen captured by His tag, antibody as analyte
Source text: Antigen was loaded as ligand and dipped into antibody as analyte during association, and assay buffer during dissociation.
Purified recombinant antigens were purchased from a commercial supplier or prepared and purified in-house and details are shown in Table 2.

T1 sequence (P43146 other isoform, or with tags, fused parts or gaps): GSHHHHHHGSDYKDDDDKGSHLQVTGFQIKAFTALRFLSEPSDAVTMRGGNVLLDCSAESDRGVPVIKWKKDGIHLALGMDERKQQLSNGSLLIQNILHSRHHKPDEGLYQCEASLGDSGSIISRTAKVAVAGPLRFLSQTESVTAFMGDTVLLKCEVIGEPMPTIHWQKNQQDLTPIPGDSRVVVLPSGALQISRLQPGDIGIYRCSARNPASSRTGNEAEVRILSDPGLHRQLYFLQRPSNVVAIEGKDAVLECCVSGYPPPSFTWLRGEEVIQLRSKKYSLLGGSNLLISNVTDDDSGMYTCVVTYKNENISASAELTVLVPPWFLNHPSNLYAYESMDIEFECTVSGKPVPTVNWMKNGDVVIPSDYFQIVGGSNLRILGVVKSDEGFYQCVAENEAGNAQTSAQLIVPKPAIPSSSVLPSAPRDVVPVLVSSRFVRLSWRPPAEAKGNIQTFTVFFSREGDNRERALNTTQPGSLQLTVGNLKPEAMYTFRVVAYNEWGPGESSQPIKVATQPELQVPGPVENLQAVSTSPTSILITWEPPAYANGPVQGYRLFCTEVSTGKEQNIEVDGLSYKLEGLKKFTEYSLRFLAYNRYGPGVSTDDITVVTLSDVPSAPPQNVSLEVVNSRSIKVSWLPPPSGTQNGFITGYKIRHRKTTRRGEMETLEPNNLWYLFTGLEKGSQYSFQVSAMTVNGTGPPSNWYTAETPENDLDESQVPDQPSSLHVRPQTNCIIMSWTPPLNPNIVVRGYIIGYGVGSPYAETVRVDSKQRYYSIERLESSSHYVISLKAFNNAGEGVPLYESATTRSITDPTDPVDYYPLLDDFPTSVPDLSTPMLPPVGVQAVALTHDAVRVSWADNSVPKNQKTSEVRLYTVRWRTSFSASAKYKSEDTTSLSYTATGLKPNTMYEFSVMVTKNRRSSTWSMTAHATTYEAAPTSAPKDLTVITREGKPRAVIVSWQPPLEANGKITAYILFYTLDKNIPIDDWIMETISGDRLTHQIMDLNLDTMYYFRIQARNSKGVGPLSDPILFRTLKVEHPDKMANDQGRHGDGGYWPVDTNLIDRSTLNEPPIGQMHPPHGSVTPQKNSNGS

binding result: no binding (tested: up to 100 nM)
B1: ATL_0006178 (antibody, IgG1, V domains shown)
VH: QVQLQESGPGLVKPSETLSLTCTVSGGSISSYFWSWIRQPPGKGLEWIGYIHYSGTTNQNPSLKSRVTISVDKSKNQFSLKLSSVTAADTAVYYCARGRGMATLPFDYWGQGTLVTVSS
VL: not shown
notes: Combination variant of ATL_5262 (T82K, Q67 kept, N58Y); also called ATL_6178; ATL6178
